Experimental data as given in patent US20240092930A1 (MABWELL SHANGHAI BIOSCIENCE, published 2024).

T1: recombinant human Trop-2-his protein (ACCESSION NO.: NP_002344.2, AA 1-274) (human, UniProt P09758 27-274)
T1 construct: range 27-274; also called recombinant human Trop-2 protein; recombinant human Trop-2 extracellular domain; not shown: his tag
T1 sequence (looked up): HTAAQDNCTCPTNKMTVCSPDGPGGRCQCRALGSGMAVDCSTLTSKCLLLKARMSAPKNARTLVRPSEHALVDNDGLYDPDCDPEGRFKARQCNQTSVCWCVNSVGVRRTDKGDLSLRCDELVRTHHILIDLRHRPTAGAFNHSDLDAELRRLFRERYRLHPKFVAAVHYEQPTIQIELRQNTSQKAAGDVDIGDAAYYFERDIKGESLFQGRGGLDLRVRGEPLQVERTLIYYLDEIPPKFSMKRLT

T2: human Trop-2 on the surface of cells (CHO/Trop-2 cells; BxPC-3 cells; NCI-N87 cells) (human, UniProt P09758 27-323)
T2 sequence (looked up): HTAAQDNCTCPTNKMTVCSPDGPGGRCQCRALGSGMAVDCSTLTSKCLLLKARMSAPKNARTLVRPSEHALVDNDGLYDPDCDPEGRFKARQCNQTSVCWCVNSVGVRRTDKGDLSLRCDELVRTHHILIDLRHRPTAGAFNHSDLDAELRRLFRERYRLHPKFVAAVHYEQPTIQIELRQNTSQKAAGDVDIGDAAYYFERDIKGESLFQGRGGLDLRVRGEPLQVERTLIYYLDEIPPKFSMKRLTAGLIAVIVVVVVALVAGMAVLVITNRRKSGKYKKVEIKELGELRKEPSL

T3: recombinant cynomolgus Trop-2-his protein (ACCESSION NO.: UniProtKB-A0A2K5UE71, AA 1-272) (cynomolgus, UniProt A0A2K5UE71 1-272)
T3 construct: The printed range begins at residue 1; not shown: his tag
T3 sequence: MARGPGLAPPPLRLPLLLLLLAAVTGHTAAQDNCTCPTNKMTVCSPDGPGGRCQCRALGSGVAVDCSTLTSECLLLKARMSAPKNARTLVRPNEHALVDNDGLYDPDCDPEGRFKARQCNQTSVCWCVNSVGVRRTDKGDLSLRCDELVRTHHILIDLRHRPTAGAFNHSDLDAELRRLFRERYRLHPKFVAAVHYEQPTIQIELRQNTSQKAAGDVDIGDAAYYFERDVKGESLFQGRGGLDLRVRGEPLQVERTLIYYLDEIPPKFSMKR


What was measured:
[1] = target: T1, recombinant human Trop-2-his protein …; assay: BLI, antibody on AHC sensor, Trop-2-his 23, 30, 45, 75 nM
Description: Affinities of the antibodies were determined by an assay including capturing Fc fragments of the antibodies with anti-human IgG Fc capture (AHC) biosensors using Octet QKe system instrument from Fortebio.
For the assay, each of the antibodies (h23-12, h4-3, and control antibody Sacituzumab) was diluted to 4 μg/ml in PBS, and was allowed to flow through the surface of an AHC biosensor (Cat.: 18-0015, PALL) for 120 s. Recombinant human Trop-2-his protein (ACCESSION NO.: NP_002344.2, AA 1-274) was used as a mobile phase. The Trop-2-his protein was used in following concentrations which corresponded to different antibodies: in case of h23-12, the Trop-2 was used in concentrations of 23, 30, 45, and 75 nM; in case of h4-3, it was used in concentrations of 23, 30, 45, and 60 nM; and in case of Sacituzumab, it was used in concentrations of 23, 30, 45, and 75 nM. The binding time was 100 s and the dissociation time was 300 s. When the assay was finished, data from which the response values of blank control had been deducted were fitted to a 1:1 Langmuir binding model using software, and then kinetic constants for antigen-antibody binding were calculated.

[2] = target: T2, human Trop-2 on the surface of cells …; assay: cell-based or functional assay
[3] = target: T3, recombinant cynomolgus Trop-2-his …; assay: ELISA, coated cynomolgus Trop-2-his 1 µg/ml
Description: Washed with PBS 3 times, the plates were blocked with the added 5% BSA PBS at 37° C. for 60 min, and then washed 3 times with PBST. Different concentrations of h23-12 (serial dilutions of 14 concentrations obtained through 3-fold serially diluting a solution with an initial concentration of 10 μg/ml), h4-3 (serial dilutions of 12 concentrations obtained through 3-fold serially diluting a solution with an initial concentration of 3 μg/ml), and Sacituzumab (serial dilutions of 12 concentrations obtained through 3-fold serially diluting a solution with an initial concentration of 3 μg/ml) were added into the plates, with each concentration provided in a parallel well. The plates were incubated at 37° C. for 60 min, and then were washed 4 times with PBST. 1:5000 dilution of H1RP-anti-human Fc (Cat.: 109-035-098, Jackson ImmunoResearch) was added into the plates for incubation at 37° C. for 30 min. Afterwards, the plates were washed with PBST 4 times, and TMB substrate was added for color development at 37° C. for 10 min. Then 2M HCl was added to stop reaction; and absorbances at 450 nm and at 630 nm (as reference wavelength) were read, and A450 nm-630 nm values of the wells in the plates were recorded.

[4] = target: T1, recombinant human Trop-2-his protein …; assay: ELISA, coated Trop-2-his 0.2 µg/ml
Description: Plates were coated with recombinant human Trop-2-his protein (ACCESSION NO.: NP_002344.2, AA 1-274) at a concentration of 0.2 μg/ml overnight at 4° C. and then blocked with 5% BSA for 60 min in a constant temperature incubator at 37° C. Chimeric antibodies ch3-11, ch4-3, ch17-1, ch11-4, and ch23-12 and control antibody Sacituzumab (serial dilutions of 8 concentrations in total obtained through 3-fold serially diluting a solution with an initial concentration of 2 μg/ml) were added into the plates which were then incubated in a constant temperature incubator at 37° C. for 60 min. The plates were washed with PBST 4 times, and 1:5000 dilution of HRP-anti-human Fc (Cat.: 109-035-098, Jackson ImmunoResearch) was added into the plates for reaction for 45 min. TMB (Cat.: ME142, GalaxyBio, Beijing) substrate was added for color development for 15 min, and then 2M HCl was added to stop reaction. Absorbances at 450 nm and at 630 nm (as reference wavelength) were read, and A450 nm-630 nm values of the wells in the plates were recorded.

Row | Kd [1] [nM] | koff [1] [s⁻¹] | kon [1] [M⁻¹ s⁻¹] | Internalization percentage, 1 h, BXPC-3 cells, FACS [2] [%] | EC50 [3] [nM] | EC50 [4] [nM] | Binder
1 | 0.64 | 0.000114 | 178000 | 32.4 | 0.124 |  | h23-12-25 (antibody, human IgG1, kappa, V domains shown, also called h32-12) VH: QVQLVQSGAEVKKPGASVKVSCKASGYTFTSYWMHWVRQAPGQGLEWMGEITPSDNYGSYNQKFKGRVTITRDTSTSTAYMELSSLRSEDTAVYYCARGHGNYVSFDYWGQGTLVTVSS VL: DIQMTQSPSSLSASVGDRVTITCRASQDISNYLNWYQQKPGKAPKLLIYYTSRLESGVPSRFSGSGSGTDFTLTISSLQPEDFATYFCQQGYTLPPYTFGQGTKLEIKR
2 | 0.941 | 0.000194 | 208000 | 37.4 | 0.0726 | 0.271 | Sacituzumab (antibody, human IgG1, kappa, V domains shown, expressed in HEK293; also called control antibody Sacituzumab; Saituzumab) VH: QVQLQQSGSELKKPGASVKVSCKASGYTFTNYGMNWVKQAPGQGLKWMGWINTYTGEPTYTDDFKGRFAFSLDTSVSTAYLQISSLKADDTAVYFCARGGFGSSYWYFDVWGQGSLVTVSS VL: DIQLTQSPSSLSASVGDRVSITCKASQDVSIAVAWYQQKPGKAPKLLIYSASYRYTGVPDRFSGSGSGTDFTLTISSLQPEDFAVYYCQQHYITPLTFGAGTKVEIKR
